In patent US20110039770A1 (PHARMAGAP, published 2011):

How the values were obtained:
[1] = target: T1, PKC-ε (endogenous, IMR-32 lysate) (human, UniProt Q02156 1-737); assay: WB competition Protocol B, IMR-32 extract, vs anti-PKC-ε Ab; PKC-ε Band 1; 100 µg peptide
T1 construct: Band 1 and Band 2 (alternate splicing variants, not identified further) are kept under one molecule; the band is named in the assay field of each row; also called PKC-epsilon; PKC-ε Band 1
T1 sequence (looked up): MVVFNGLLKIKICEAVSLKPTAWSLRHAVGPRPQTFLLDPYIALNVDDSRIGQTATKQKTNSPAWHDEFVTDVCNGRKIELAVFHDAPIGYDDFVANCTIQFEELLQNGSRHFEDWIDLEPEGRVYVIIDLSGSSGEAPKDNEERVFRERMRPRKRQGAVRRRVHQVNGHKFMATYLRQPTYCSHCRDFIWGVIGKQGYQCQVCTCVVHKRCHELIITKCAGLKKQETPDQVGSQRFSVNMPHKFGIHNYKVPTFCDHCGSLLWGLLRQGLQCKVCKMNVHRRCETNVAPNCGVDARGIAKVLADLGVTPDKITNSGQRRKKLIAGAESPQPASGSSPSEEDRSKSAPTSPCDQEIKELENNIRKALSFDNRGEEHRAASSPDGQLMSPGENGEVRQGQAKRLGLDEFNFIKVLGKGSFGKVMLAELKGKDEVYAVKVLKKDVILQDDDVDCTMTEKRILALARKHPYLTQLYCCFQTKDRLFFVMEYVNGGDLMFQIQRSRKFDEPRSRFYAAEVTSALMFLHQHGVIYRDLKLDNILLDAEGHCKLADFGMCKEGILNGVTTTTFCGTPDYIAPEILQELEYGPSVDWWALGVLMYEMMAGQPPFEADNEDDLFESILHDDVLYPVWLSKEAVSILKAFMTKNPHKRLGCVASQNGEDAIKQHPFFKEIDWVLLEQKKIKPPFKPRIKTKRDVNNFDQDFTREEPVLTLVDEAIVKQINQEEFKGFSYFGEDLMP
Method: (§1) The ability of the peptides PRE 2 and PRE 3 (see Table 4) to interfere with the binding of a PKC-α-specific polyclonal antibody (Santa Cruz Biotechnology, Inc.) to PKC-α was determined using a modified version of the protocol outlined above in which the test peptide was added directly to the cell extract prior to electrophoresis at a concentration of either 5× or 15× the concentration of the protein applied to each well of the gel for the Western blots (20 μg).
(§2) Peptides PRE 2, PRE 3 and PRE 4 (see Table 4) were tested for their ability to interfere with the binding of isoform-specific polyclonal antibodies (Santa Cruz Biotechnology, Inc.) to […] using the general protocol described in Example 3. Two bands, representing alternate splicing variants of PKC-ε, were identified on the Western blot using this anti-PKC-ε antibody.

[2] = target: T1, PKC-ε (endogenous, IMR-32 lysate); assay: WB competition Protocol B, IMR-32 extract, vs anti-PKC-ε Ab; PKC-ε Band 2; 20 µg peptide
Method: as §1, §2

[3] = target: T1, PKC-ε (endogenous, IMR-32 lysate); assay: WB competition Protocol B, IMR-32 extract, vs anti-PKC-ε Ab; PKC-ε Band 2; 100 µg peptide
Method: as §1, §2

[4] = target: T2, PKC-βII (purified isoform) (Homo sapiens (Human), UniProt P05771 2-621); assay: competitive ELISA, coated purified PKC-βII, vs anti-PKC βII (SC-210); PRE 200 µM
T2 construct: also called PKC-beta II; PKC beta 2

[5] = target: T1, PKC-ε (endogenous, IMR-32 lysate); assay: WB competition Protocol B, IMR-32 extract, vs anti-PKC-ε Ab; PKC-ε Band 2; 50 µg peptide
Method: as §1, §2

[6] = target: T3, PKC-βI (purified isoform) (Homo sapiens (Human), UniProt P05771 2-671); assay: competitive ELISA, coated purified PKC-βI, vs anti-PKC βI (SC-209); PRE 50 µM
T3 construct: also called PKC-beta I; PKC beta 1
Method: Greiner 96 well ELISA plates were coated with the appropriate PKC isoform diluted in PBSN (PBS with Calcium/Magnesium+0.05% Sodium azide w/w). 50 μL/well at 250 ng/mL was used. Control wells contained PBSN only. Plates were incubated overnight at 4° C.
The plates were washed 3 times with 200 μL of dH₂O per well, then 100 μL of blocking solution was added per well and the plate incubated for 1 h at 37° C. The washing steps with dH₂O were repeated and 50 μL of the appropriate PRE solution (PRE stock solution [20 mM in DMSO] diluted in PBSN) was added and the plate incubated for 1 h at room temperature.
50 μL of 1:1000 dilution of Alkaline Phosphatase (AP) conjugated antibody (anti-rabbit for all except zeta, which was anti-goat) was then added and the plate incubated for 1 h at room temperature. Washing with dH₂O was then repeated. Finally, 100 μL of pNPP solution in pNPP buffer (2 mM MgCl₂, 100 mM Sodium bicarbonate in water, pH 9.8) was added to all wells and incubated for 8 minutes for α, βI, βII ε, and ζ, or for 15-20 mins for δ (until sufficient coloration is observed). The reaction was stopped by addition of Stop solution (2N NaOH) and the absorbance at 405 nm was read on a Galaxy Plate reader.

[7] = target: T4, PKC-α (purified isoform) (Homo sapiens (Human), UniProt P17252 2-672); assay: competitive ELISA, coated purified PKC-α, vs anti-PKC α (SC-208); PRE 200 µM
T4 construct: also called purified PKC-alpha; commercially purified PKC-alpha
Summary of the method: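 Wells were coated overnight at 4 °C with purified PKC isoform at 250 ng/mL in PBSN, blocked 1 h at 37 °C, and then given PRE diluted in PBSN from a 20 mM DMSO stock for 1 h at room temperature. The AP-conjugated anti-rabbit antibody was developed with pNPP (pH 9.8) and read at 405 nm.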

T2 sequence (P05771 other isoform, or with tags, fused parts or gaps limits assumed): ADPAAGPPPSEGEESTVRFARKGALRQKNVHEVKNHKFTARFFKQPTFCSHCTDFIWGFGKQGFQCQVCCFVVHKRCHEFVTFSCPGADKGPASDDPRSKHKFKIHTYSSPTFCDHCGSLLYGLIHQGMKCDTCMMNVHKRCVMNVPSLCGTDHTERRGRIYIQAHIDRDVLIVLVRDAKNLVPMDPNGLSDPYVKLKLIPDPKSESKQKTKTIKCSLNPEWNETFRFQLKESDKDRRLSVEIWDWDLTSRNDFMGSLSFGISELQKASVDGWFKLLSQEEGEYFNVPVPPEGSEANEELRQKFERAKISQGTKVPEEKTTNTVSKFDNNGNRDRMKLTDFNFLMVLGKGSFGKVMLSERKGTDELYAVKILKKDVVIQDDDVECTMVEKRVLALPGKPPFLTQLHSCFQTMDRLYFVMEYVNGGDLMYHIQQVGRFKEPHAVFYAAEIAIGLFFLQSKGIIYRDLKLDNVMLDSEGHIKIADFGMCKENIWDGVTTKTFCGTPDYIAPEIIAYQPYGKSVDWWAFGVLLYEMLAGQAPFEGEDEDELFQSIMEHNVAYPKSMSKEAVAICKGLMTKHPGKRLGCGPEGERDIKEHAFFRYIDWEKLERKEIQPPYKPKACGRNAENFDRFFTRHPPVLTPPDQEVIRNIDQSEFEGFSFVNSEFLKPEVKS
T3 sequence (P05771 2-671 limits assumed): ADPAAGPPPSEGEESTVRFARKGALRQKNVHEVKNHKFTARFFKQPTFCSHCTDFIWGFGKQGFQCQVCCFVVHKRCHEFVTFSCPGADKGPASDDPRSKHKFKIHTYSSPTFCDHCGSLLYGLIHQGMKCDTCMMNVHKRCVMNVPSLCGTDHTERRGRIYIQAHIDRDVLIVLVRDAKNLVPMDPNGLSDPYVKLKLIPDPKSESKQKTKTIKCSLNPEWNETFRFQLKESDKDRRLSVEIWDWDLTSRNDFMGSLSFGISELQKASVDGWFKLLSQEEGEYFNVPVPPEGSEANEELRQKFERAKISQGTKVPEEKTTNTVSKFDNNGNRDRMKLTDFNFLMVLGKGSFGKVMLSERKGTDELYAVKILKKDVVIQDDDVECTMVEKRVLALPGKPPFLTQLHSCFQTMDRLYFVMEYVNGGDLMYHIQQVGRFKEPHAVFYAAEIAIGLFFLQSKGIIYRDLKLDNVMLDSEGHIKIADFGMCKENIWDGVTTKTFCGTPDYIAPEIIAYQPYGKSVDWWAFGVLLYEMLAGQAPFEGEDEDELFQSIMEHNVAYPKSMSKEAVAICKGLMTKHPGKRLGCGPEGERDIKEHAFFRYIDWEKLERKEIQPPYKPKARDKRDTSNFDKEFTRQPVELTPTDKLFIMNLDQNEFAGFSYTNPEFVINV

- Band Intensity [1]: 0
- Inhibition (%) [1]: 100%
- Relative Intensity (%) [1]: 0%
- Band Intensity [2]: 153
- Inhibition (%) [2]: 46.6%
- Relative Intensity (%) [2]: 53.3%
- Band Intensity [3]: 0
- Inhibition (%) [3]: 100%
- Relative Intensity (%) [3]: 0%
- relative binding capacity (100-%n, DMSO subtracted) [4]: 1.18%
- Band Intensity [5]: 0
- Inhibition (%) [5]: 100%
- Relative Intensity (%) [5]: 0%
- relative binding capacity (100-%n, DMSO subtracted) [6]: 6.02%
- relative binding capacity (100-%n, DMSO subtracted) [7]: 22.8%
Binder: Ac-KDAQNLIGISI-NH2 (also called peptide PRE 4) [PRE 4]
